Laboratory results from patent US20240272082A1 (ARIZONA BOARD OF REGENTS ON BEHALF OF ARIZONA STATE …, published 2024).
Values joined by “and” are separate entries in the source; they are usually repeats but may differ in a detail not shown here. Equal entries are not always repeated. No end group written: not given here.

What was measured:
[1] = target: T1, proprotein convertase subtilisin/kexin type 9 (PCSK9) (UniProt Q8NBP7 31-692, limits assumed); assay: CSOD; phage immobilised on fiber probe, PCSK9 in solution, global first-order fit
T1 construct: Analyte in solution in both CSOD and SPR; also called PCSK9 protein
T1 sequence (Q8NBP7 31-692 limits assumed): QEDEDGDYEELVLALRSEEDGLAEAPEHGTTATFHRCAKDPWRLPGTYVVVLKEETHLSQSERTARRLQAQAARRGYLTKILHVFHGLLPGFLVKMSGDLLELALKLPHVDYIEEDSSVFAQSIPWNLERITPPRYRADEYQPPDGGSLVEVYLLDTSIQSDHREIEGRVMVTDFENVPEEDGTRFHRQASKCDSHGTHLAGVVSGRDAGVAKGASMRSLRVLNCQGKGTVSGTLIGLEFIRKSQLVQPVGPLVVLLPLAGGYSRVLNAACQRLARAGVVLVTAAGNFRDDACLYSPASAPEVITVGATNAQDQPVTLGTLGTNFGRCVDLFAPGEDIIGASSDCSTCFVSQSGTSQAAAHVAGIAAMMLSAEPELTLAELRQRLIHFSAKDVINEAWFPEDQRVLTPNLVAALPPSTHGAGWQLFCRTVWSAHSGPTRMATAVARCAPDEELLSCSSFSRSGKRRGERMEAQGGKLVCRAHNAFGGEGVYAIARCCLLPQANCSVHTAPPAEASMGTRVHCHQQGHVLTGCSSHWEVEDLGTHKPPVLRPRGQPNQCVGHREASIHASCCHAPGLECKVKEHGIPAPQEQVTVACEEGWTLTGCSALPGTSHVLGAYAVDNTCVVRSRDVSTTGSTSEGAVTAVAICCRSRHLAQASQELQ
Text: The fiber probes were switched from a well containing a buffer to a well containing PCSK9 at 0 s for the measurement of the association process (downward facing arrow) and then switched back to the buffer well at the time indicated by the upward facing arrow for the measurement of the dissociation process.
The binding of different concentrations of PCSK9 proteins to the functionalized probes was studied in a 40-time diluted PBS buffer. For each measurement, a baseline was first established by dipping the functionalized fiber tip into a microplate well with a buffer; then, the fiber was switched to another well containing PCSK9 protein solution to measure the association curve. Finally, the fiber was moved back to the buffer well and the dissociation process was recorded. By fitting the kinetic curves at different concentrations globally with first order kinetics using Scrubber v.2.0c, the association rate constants (ka), dissociation rate constants (kd), and equilibrium constants (KD) for all samples are summarized in Table 2.

[2] = target: T1, proprotein convertase subtilisin/kexin …; assay: CSOD; comparison of KD values of Table 2

B1: SG pep2-8-2478 (M13 phage-displayed peptide, fused to pVIII) (peptide)
peptide: SGTVFTSWEEYLDWV
modifications: not fully specified
notes: Samples A and B are identical replicates prepared separately; also called Sample 5A; Sample 5B; not shown: M13 major coat protein pVIII (display carrier) and any linker between peptide and pVIII
Kd [1]: 370 nM and 380 nM | koff [1]: 0.00154 s⁻¹ and 0.00119 s⁻¹ | kon [1]: 4200 M⁻¹ s⁻¹ and 3130 M⁻¹ s⁻¹ | fold affinity change against Sample #4 (no SG pep2-8-2478) [2]: ~2 fold
